Laboratory results published in article PMC7539366 (Cell host & microbe, 2020).

T1: CVA16 empty particle (strain CVA16/190) (Coxsackievirus A16, strain CVA16/190 …, strain)
T1 chain 1: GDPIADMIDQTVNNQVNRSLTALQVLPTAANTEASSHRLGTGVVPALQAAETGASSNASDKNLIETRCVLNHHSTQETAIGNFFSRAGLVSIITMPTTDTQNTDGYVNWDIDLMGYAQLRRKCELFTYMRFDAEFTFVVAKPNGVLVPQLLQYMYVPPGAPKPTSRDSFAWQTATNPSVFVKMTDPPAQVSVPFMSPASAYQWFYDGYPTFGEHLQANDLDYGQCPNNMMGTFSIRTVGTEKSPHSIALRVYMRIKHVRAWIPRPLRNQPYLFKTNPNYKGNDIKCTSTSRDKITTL
T1 chain 2: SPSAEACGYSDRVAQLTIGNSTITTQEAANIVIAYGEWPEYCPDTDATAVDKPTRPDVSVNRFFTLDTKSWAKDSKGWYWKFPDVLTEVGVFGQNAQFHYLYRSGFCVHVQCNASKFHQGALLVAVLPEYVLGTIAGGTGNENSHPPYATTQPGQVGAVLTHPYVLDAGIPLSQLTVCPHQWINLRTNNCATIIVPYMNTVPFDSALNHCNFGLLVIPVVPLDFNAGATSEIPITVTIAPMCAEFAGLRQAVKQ
T1 chain 3: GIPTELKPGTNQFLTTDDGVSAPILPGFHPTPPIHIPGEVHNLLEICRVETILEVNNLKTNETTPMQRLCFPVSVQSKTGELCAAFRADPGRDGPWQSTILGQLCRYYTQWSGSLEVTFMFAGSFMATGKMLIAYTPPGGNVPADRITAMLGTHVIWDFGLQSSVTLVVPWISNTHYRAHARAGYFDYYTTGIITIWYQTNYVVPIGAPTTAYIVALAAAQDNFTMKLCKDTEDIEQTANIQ

T2: CVA16 A-particle (strain CVA16/190) (Coxsackievirus A16, strain CVA16/190 …, strain)
T2 chain 1: T1 chain 1
T2 chain 2: T1 chain 2
T2 chain 3: T1 chain 3

T3: CVA16 mature virion (strain CVA16/190) (Coxsackievirus A16, strain CVA16/190 …, strain)
T3 chain 1: T1 chain 1
T3 chain 2: T1 chain 2
T3 chain 3: T1 chain 3
T3 chain 4: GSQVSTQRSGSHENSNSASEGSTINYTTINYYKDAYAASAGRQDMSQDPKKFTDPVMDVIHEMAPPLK

B1: Mouse Monoclonal Antibody-18A7 (antibody, V domains shown)
VH: EVQLQQSGPELVKPGASVKMSCKASGYTFTDYYMKWVKQSHGKSLEWIGDINPYNGDSFNNQKFKGKATLTVDTSSSTAYMQLNSLTSEDSAVYYCAIPYDYDEGWFAYWGQGTLVTVSA
VL: DIVMSQSPSSLAVSVGEKVTMSCKSSQSLLYSNNQKNYLAWYQQKPGQSPQLLIYWASTRESGVPDRFTGSESGTDFTLTISSVKAEDLAVFYCQQYYNYPWTFGGGTKLEIK
B2: 18A7 Fab fragment (Fab, V domains shown)
VH: B1 VH
VL: B1 VL
B3: Mouse Monoclonal Antibody-14B10 (antibody, V domains shown)
VH: QVQLQQSGPELVKPGASVKISCKASGYEFSRSWMNWVKQRPGQGLEWIGRIYPGDGDTNYNGKFRDKATLTADKSSSTAYMQLSRLTSVDSAVYFCARRRGYFDVWGAGTTVTVS
VL: DIQMTQSSSYLSVSLGGRVTITCKASDHINNWLAWYQQKPGNAPRLLISGATSLETGIPSRFSGSGSGKDYTLSITSLQTEDVGTYYCQQYWSTPTFGGGTKLEIK
B4: 14B10 Fab fragment (Fab, V domains shown)
VH: B3 VH
VL: B3 VL
B5: Mouse Monoclonal Antibody-NA9D7 (antibody, V domains shown)
VH: EVQLQQSGPELVKPGASVKMSCKASGYTFTDYYMKWVKQSHGKSLEWIGDINPNNGATSYNQKFKGKATLTVDKSSSTAYMQLNSLTSEDSAVYYCARRGYGLYYAMDYWGQGTSVTVSS
VL: EIVLTQSPTTMAASPGEKITITCSASSSISSNYLHWYQQKPGFSPKLLIYRTSNLASGVPARFSGSGSGTSYSLTIGTMEAEDVATYYCQQGSSIPHTFGGGTKLEIK
B6: NA9D7 Fab fragment (Fab, V domains shown)
VH: B5 VH
VL: B5 VL

What was measured:
[1] = molecular target: CVA16 mature virion (strain CVA16/190) (coxsackievirus A16 (strain CVA16/190))
[2] = molecular target: T1, CVA16 empty particle (strain CVA16/190); test: cryo-EM structure
[3] = molecular target: T2, CVA16 A-particle (strain CVA16/190); test: cryo-EM structure
[4] = molecular target: T1, CVA16 empty particle (strain CVA16/190); test: ELISA
[5] = molecular target: T3, CVA16 mature virion (strain CVA16/190); test: cryo-EM structure

Binder | IC50 of neutralisation of CVA16/190 in RD cells (micro-neutralization, Elispot) [1] [µg/mL] | binding result [4] | stoichiometry N [5] [Fabs per mature virion] | other results
B1 | 0.04 |  |  | 
B2 |  |  |  | stoichiometry N [2]: 12 Fabs per viral particle; stoichiometry N [3]: 12 Fabs per viral particle
B3 | 1.01 | no binding |  | 
B4 |  |  | ≤ 60 | 
B5 | 1.96 | no binding |  | 
B6 |  |  | ≤ 60 | 
